Laboratory results taken from patent US20190025332A1 (Novo Nordisk, published 2019).

T1: wild type human MIC-1 (human, UniProt Q99988 197-308)
T1 construct: also called wtMIC-1; hMIC-1
T1 sequence: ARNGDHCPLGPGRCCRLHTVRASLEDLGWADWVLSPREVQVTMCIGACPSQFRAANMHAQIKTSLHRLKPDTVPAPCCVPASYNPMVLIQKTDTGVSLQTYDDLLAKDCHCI

T2: hGDNF (human, UniProt P39905 78-211)
T2 sequence (looked up): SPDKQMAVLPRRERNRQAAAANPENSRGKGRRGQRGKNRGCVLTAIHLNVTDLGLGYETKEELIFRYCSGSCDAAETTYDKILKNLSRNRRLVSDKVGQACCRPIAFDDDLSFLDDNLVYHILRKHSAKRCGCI

T3: hNRTN (human, UniProt Q99748 96-197)
T3 sequence (looked up): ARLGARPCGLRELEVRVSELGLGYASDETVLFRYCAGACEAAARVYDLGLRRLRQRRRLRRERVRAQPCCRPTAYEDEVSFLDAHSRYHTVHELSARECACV

T4: hARTN (human, UniProt Q5T4W7 108-220)
T4 sequence (looked up): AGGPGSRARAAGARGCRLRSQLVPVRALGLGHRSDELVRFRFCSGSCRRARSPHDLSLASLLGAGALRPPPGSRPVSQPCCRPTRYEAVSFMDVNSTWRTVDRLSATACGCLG

T5: hPSPN (human, UniProt O60542 61-156, limits assumed)
T5 sequence (looked up): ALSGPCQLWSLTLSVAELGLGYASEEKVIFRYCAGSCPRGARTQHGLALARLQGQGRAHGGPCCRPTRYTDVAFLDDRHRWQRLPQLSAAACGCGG


Columns and labels:
wild type human MIC-1 [1] = molecular target: T1, wild type human MIC-1; assay: SPR; ligand as analyte over immobilised mGFRAL(ECR)-Fab-HPC4
Description: (§1) For SPR-based binding assay, wtMIC-1 as well as hGDNF, hNRTN, hARTN and hPSPN, at various concentrations were run as flow-through analytes. hGFRAL(ECR)-Fab and mGFRAL(ECR)-Fab were immobilized as ligand. […] FCRL2-Fab-HPC4 (Ctrl.-Fab-HPC4) was used as control. Please see FIG. 5 and Table 4.

hGDNF [2] = molecular target: T2, hGDNF; assay: as above
Description: as §1

hNRTN [3] = molecular target: T3, hNRTN; assay: as above
Description: as §1

hARTN [4] = molecular target: T4, hARTN; assay: as above
Description: as §1

hPSPN [5] = molecular target: T5, hPSPN; assay: as above
Description: as §1

hGDNF [6] = molecular target: T2, hGDNF; assay: SPR; ligand as analyte over immobilised hGFRAL(ECR)-Fab-HPC4
Description: as §1

hNRTN [7] = molecular target: T3, hNRTN; assay: as above
Description: as §1

hARTN [8] = molecular target: T4, hARTN; assay: as above
Description: as §1

hPSPN [9] = molecular target: T5, hPSPN; assay: as above
Description: as §1

wild type human MIC-1 [10] = molecular target: T1, wild type human MIC-1; assay: SPR; GFRAL fragment as analyte over immobilised wtMIC-1; relative to hGFRAL(ECR) set as 100%
Procedure: MIC-1 interactions with soluble GFRAL fragments were assessed by SPR-based binding assay. A Biacore® 4000 (GE Healthcare, Piscataway, N.J., USA) instrument was used for SPR-based binding assay. The assays were performed at 25° C. at flow rates of 30 μL/minute in 1× HBS-P running buffer (BR-1006-71, GE Healthcare, Piscataway, N.J., USA). Purified GFRAL fragments at various concentrations were run as flow-through analyte and wtMIC-1 was immobilized as ligand. Please see FIG. 6 and Table 5.

| binding result (wild type human MIC-1 [1]) | binding result (hGDNF [2]) | binding result (hNRTN [3]) | binding result (hARTN [4]) | binding result (hPSPN [5]) | binding result (hGDNF [6]) | binding result (hNRTN [7]) | binding result (hARTN [8]) | binding result (hPSPN [9]) | % of Binding (wild type human MIC-1 [10]) [%] | Binder |
| --- | --- | --- | --- | --- | --- | --- | --- | --- | --- | --- |
| binds | no binding | no binding | no binding | no binding | – | – | – | – | – | mGFRAL(ECR)-Fab-HPC4 (receptor, Soluble fusion of the mouse GFRAL (isoform 1) extracellular region with an anti-TNP Fab; also called mGFRA(ECR)L-Fab-HPC4) QTNDCAHLIQKCLIDANGCEQSWRSMEDTCLTPGDSCKINNSLHCNLSIQALVEKNFQFKECLCMDDLHCTVNKLFGKKCTNKTDNMEKDNKDKWNLTTTPFYHGFKQMQSCLEVTEACVGDVVCNAQLALYLKACSANGNLCDVKHCQAAIRFFYQNMPFNTAQMLAFCDCAQSDIPCQQSKETLHSKPCALNIVPPPTCLSVIHTCRNDELCRTHYRTFQTECWPHITGKCHEDETCISMLGKQDLTCSGSESCRAAFLGTFGTVLQVPCACRGVTQAEEHVCMIFQHMLHSKSCFNYPTPNVKDISSYEKKNSKEITLTGFNSFFNGGGGSGGGGSDVVMTQTPLSLPVSLGDQASISCRSSQSLLHSNGNTYLHWYLQKPGQSPKLLIYKVSNRFSGVPDRFSGSGSGTDFTLKISRVEAEDLGVYFCSQSTHVPWTFGGGTKLEIKRADAAPTVSIFPPSSEQLTSGGASVVCFLNNFYPKDINVKWKIDGSERQNGVLNSWTDQDSKDSTYSMSSTLTLTKDEYERHNSYTCEATHKTSTSPIVKSFNRNEC heavy: EVQIQESGPSLVKPSQTLSLTCSVSGDSITSGYWNWIRKFPGHKIEYMGTISYSGDTYYNPSLKSRISITRDTSKNQYYLHLNSVTTEDTATYYCARYGSYVFDYWGQGTTLTVSSAKTTPPSVYPLAPGSAAQTNSMVTLGCLVKGYFPEPVTVTWNSGSLSSGVHTFPAVLQSDLYTLSSSVTVPSSTWPSETVTCNVAHPASSTKVDKKIVPRDCGGGGSEDQVDPRLIDGK |
| – | – | – | – | – | no binding | no binding | no binding | no binding | 100 | hGFRAL(ECR)-Fab-HPC4 (receptor) QTNNCTYLREQCLRDANGCKHAWRVMEDACNDSDPGDPCKMRNSSYCNLSIQYLVESNFQFKECLCTDDFYCTVNKLLGKKCINKSDNVKEDKFKWNLTTRSHHGFKGMWSCLEVAEACVGDVVCNAQLASYLKACSANGNPCDLKQCQAAIRFFYQNIPFNIAQMLAFCDCAQSDIPCQQSKEALHSKTCAVNMVPPPTCLSVIRSCQNDELCRRHYRTFQSKCWQRVTRKCHEDENCISTLSKQDLTCSGSDDCKAAYIDILGTVLQVQCTCRTITQSEESLCKIFQHMLHRKSCFNYPTLSNVKGMALYTRKHANKITLTGFHSPFNGEGGGGSGGGGSDVVMTQTPLSLPVSLGDQASISCRSSQSLLHSNGNTYLHWYLQKPGQSPKLLIYKVSNRFSGVPDRFSGSGSGTDFTLKISRVEAEDLGVYFCSQSTHVPWTFGGGTKLEIKRADAAPTVSIFPPSSEQLTSGGASVVCFLNNFYPKDINVKWKIDGSERQNGVLNSWTDQDSKDSTYSMSSTLTLTKDEYERHNSYTCEATHKTSTSPIVKSFNRNEC heavy: EVQIQESGPSLVKPSQTLSLTCSVSGDSITSGYWNWIRKFPGHKIEYMGTISYSGDTYYNPSLKSRISITRDTSKNQYYLHLNSVTTEDTATYYCARYGSYVFDYWGQGTTLTVSSAKTTPPSVYPLAPGSAAQTNSMVTLGCLVKGYFPEPVTVTWNSGSLSSGVHTFPAVLQSDLYTLSSSVTVPSSTWPSETVTCNVAHPASSTKVDKKIVPRDCGGGGSEDQVDPRLIDGK |
